Among the data in publication PMC11588662 (2024) are Kd values, retold here.

The target in this test is CD33 Db-FM (fluorescein-maleimide-labelled anti-CD33 diabody, clone SGN-33) (fluorescein-5-maleimide on the engineered C-terminal cysteine (added after the hexahistidine tag)). Description: SPR.

B1: extracellular domain of CD33, His-tagged protein (domain or fragment)
chain: DPNFWLQVQESVTVQEGLCVLVPCTFFHPIPYYDKNSPVHGYWFREGAIISRDSPVATNKLDQEVQEETQGRFRLLGDPSRNNCSLSIVDARRRDNGSYFFRMERGSTKYSYKSPQLSVHVTDLTHRPKILIPGTLEPGHSKNLTCSVSWACEQGTPPIFSWLSAAPTSLGPRTTHSSVLIITPRPQDHGTNLTCQVKFAGAGVTTERTIQLNVTYVPQNPTTGIFPGDGSGKQETRAGVVH
With B1, binding was characterised by a dissociation constant (Kd) of 7 nM. This counts as single-digit nanomolar.
